The labels stand for the following.
B1: Receptor protein kinase CLAVATA1 (Arabidopsis thaliana (Mouse-ear cress)), Q9SYQ8 (parent)
chain: MAMRLLKTHLLFLHLYLFFSPCFAYTDMEVLLNLKSSMIGPKGHGLHDWIHSSSPDAHCSFSGVSCDDDARVISLNVSFTPLFGTISPEIGMLTHLVNLTLAANNFTGELPLEMKSLTSLKVLNISNNGNLTGTFPGEILKAMVDLEVLDTYNNNFNGKLPPEMSELKKLKYLSFGGNFFSGEIPESYGDIQSLEYLGLNGAGLSGKSPAFLSRLKNLREMYIGYYNSYTGGVPPEFGGLTKLEILDMASCTLTGEIPTSLSNLKHLHTLFLHINNLTGHIPPELSGLVSLKSLDLSINQLTGEIPQSFINLGNITLINLFRNNLYGQIPEAIGELPKLEVFEVWENNFTLQLPANLGRNGNLIKLDVSDNHLTGLIPKDLCRGEKLEMLILSNNFFFGPIPEELGKCKSLTKIRIVKNLLNGTVPAGLFNLPLVTIIELTDNFFSGELPVTMSGDVLDQIYLSNNWFSGEIPPAIGNFPNLQTLFLDRNRFRGNIPREIFELKHLSRINTSANNITGGIPDSISRCSTLISVDLSRNRINGEIPKGINNVKNLGTLNISGNQLTGSIPTGIGNMTSLTTLDLSFNDLSGRVPLGGQFLVFNETSFAGNTYLCLPHRVSCPTRPGQTSDHNHTALFSPSRIVITVIAAITGLILISVAIRQMNKKKNQKSLAWKLTAFQKLDFKSEDVLECLKEENIIGKGGAGIVYRGSMPNNVDVAIKRLVGRGTGRSDHGFTAEIQTLGRIRHRHIVRLLGYVANKDTNLLLYEYMPNGSLGELLHGSKGGHLQWETRHRVAVEAAKGLCYLHHDCSPLILHRDVKSNNILLDSDFEAHVADFGLAKFLVDGAASECMSSIAGSYGYIAPEYAYTLKVDEKSDVYSFGVVLLELIAGKKPVGEFGEGVDIVRWVRNTEEEITQPSDAAIVVAIVDPRLTGYPLTSVIHVFKIAMMCVEEEAAARPTMREVVHMLTNPPKSVANLIAF
partner: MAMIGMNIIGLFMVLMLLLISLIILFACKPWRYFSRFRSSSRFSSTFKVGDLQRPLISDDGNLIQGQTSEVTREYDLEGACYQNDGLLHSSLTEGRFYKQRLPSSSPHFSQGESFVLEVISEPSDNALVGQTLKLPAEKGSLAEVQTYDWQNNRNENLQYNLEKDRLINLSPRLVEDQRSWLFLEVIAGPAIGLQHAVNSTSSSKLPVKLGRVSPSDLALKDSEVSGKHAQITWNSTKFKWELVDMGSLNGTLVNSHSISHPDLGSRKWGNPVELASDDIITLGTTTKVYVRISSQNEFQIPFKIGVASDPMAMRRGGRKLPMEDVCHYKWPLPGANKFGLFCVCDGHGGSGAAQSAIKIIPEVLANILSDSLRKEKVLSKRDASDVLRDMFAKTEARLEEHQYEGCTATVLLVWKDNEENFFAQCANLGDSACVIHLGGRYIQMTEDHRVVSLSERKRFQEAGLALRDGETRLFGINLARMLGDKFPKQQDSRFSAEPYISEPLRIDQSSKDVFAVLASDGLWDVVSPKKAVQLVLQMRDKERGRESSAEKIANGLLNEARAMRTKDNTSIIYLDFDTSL

The values below come from IntAct's records for PubMed 9701578.

The variants in this assay derive from B1. As to conditions: with KAPP.
For K720E, the “effect of a mutation on the interaction” value is on record as “disrupting interaction”.
